Assay results: EP4062934A1 (CentricsBio, Inc., dated 2022)

Biological target: T1, CD300c antigen (UniProt Q08708 21-183, limits assumed)
T1 construct: also called CD300c protein
T1 sequence (looked up): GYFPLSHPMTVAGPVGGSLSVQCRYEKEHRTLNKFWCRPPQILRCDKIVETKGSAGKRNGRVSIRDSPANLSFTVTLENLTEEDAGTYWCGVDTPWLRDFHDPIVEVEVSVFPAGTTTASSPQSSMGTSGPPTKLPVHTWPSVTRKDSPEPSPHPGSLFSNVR
Experiment: binding ELISA, antigen coated, anti-Fc HRP detection

B1: anti-CD300c monoclonal antibody CL8 (antibody, V domains shown)
VH: EVQLLESGGGLVQPGGSLRLSCAASGFTFSSYAMSWVRQAPGKGLEWVSAISGSGGSTYYADSVKGRFTISRNNSKNTLYLQMNSLRAEDTAVYYCARSGRYADLTSGGQGTLVTVSS
VL: QSVLTQPPSASGTPGQRVTISCSGSNSNIGNNYVSWYQQLPDTPPKLLIYDNNKRPSGVPDRFSGSKSGTSASLAISGLRSEDEADYYCSSYTSSSTVMFGGGTKLTVL
EC50: 49.7 µg/mL
